Test results from the Human Domainome abundance scans (Beltran et al. 2025).
± gives the uncertainty stated by the source.

B1: Zinc finger homeobox protein 4, residues 2086 to 2141; numbered along this chain, Q86UP3 (parent)
chain: RPRTRITDDQLKILRAYFDINNSPSEEQIQEMAEKSGLSQKVIKHWFRNTLFKERQ

Variants of: B1
Assay: abundance fitness (aPCA) (normalised: wild type 0, dead -1); higher = more abundant; growth selection in yeast, the domain comes from the species named
Conditions: Homo sapiens

| Variant | abundance fitness |
| --- | --- |
| RPRTRITDDQLKILRAYFDINNSPSEEQIQEMAEKSGLSQKVIKHWFRNTLFKIRQ [E54I] | -0.403 ± 0.2 |
| RPRTRITDDQLKILRAYFDINNSPSEEQIQEMAEKSGLSQKVIKHWFRNTLFKHRQ [E54H] | -0.238 ± 0.13 |
| RPRTRITDDQLKILRAYFDINNSPSEEQIQEMAEKSGLSQKVIKHWFRNTLFKDRQ [E54D] | -0.102 ± 0.11 |
| RPRTRITDDQLKILRAYFDINNSPSEEQIQEMAEKSGLSQKVIKHWFRNTLFKARQ [E54A] | -0.082 ± 0.073 |
| RPRTRITDDQLKILRAYFDINNSPSEEQIQEMAEKSGLSQKVIKHWFRNTLFKLRQ [E54L] | -0.035 ± 0.074 |
| RPRTRITDDQLKILRAYFDINNSPSEEQIQEMAEKSGLSQKVIKHWFRNTLFKKRQ [E54K] | -0.169 ± 0.13 |
| RPRTRITDDQLKILRAYFDINNSPSEEQIQEMAEKSGLSQKVIKHWFRNTLFKFRQ [E54F] | -0.231 ± 0.12 |
| RPRTRITDDQLKILRAYFDINNSPSEEQIQEMAEKSGLSQKVIKHWFRNTLFKCRQ [E54C] | -0.205 ± 0.093 |
| RPRTRITDDQLKILRAYFDINNSPSEEQIQEMAEKSGLSQKVIKHWFRNTLFKGRQ [E54G] | -0.17 ± 0.07 |
| RPRTRITDDQLKILRAYFDINNSPSEEQIQEMAEKSGLSQKVIKHWFRNTVFKERQ [L51V] | 0.04 ± 0.09 |
| RPRTRITDDQLKILRAYFDINNSPSEEQIQEMAEKSGLSQKVIKHWFRNTGFKERQ [L51G] | -0.134 ± 0.078 |
| RPRTRITDDQLKILRAYFDINNSPSEEQIQEMAEKSGLSQKVIKHWFRNTEFKERQ [L51E] | -0.127 ± 0.11 |
| RPRTRITDDQLKILRAYFDINNSPSEEQIQEMAEKSGLSQKVIKHWFRNTDFKERQ [L51D] | -0.047 ± 0.18 |
| RPRTRITDDQLKILRAYFDINNSPSEEQIQEMAEKSGLSQKVIKHWFRNTPFKERQ [L51P] | -0.125 ± 0.12 |
| RPRTRITDDQLKILRAYFDINNSPSEEQIQEMAEKSGLSQKVIKHWFRNTWFKERQ [L51W] | -0.163 ± 0.1 |
| RPRTRITDDQLKILRAYFDINNSPSEEQIQEMAEKSGLSQKVIKHWFRNTQFKERQ [L51Q] | 0.126 ± 0.12 |
| RPRTRITDDQLKILRAYFDINNSPSEEQIQEMAEKSGLSQKVIKHWFRNTYFKERQ [L51Y] | -0.098 ± 0.18 |
| RPRTRITDDQLKILRAYFDINNSPSEEQIQEMAEKSGLSQKVIKHWFRNTIFKERQ [L51I] | -0.237 ± 0.22 |
| RPRTRITDDQLKILRAYFDINNSPSEEQIQEMAEKSGLSQKVIKHWFRNTFFKERQ [L51F] | -0.257 ± 0.17 |
| RPRTRITDDQLKILRAYFDINNSPSEEQIQEMAEKSGLSQKVIKHWFRNTRFKERQ [L51R] | -0.092 ± 0.089 |
| RPRTRITDDQLKILRAYFDINNSPSEEQIQEMAEKSGLSQKVIKHWFRNTSFKERQ [L51S] | -0.1 ± 0.1 |
| RPRTRITDDQLKILRAYFDINNSPSEEQIQEMAEKSGLSQKVIKHWFRNTHFKERQ [L51H] | -0.071 ± 0.2 |
| RPRTRITDDQLKILRAYFDINNSPSEEQIQEMAEKSGLSQKVIKHWFRNTMFKERQ [L51M] | 0.005 ± 0.13 |
| RPRTRITDDQLKILRAYFDINNSPSEEQIQEMAEKSGLSQKVIKHWFRNTAFKERQ [L51A] | 0.007 ± 0.098 |

| Variant | abundance fitness |
| --- | --- |
| RPRTRITDDQLKILRAYFDINNSPSEEQIQEMAEKSGLSQKVIKHWFRNTTFKERQ [L51T] | -0.065 ± 0.12 |
| RPRTRITDDQLKILRAYFDINNSPSEEQIQEMAEKSGLSQKVIKHWFRNTKFKERQ [L51K] | -0.043 ± 0.15 |
| RPRTRITDDQLKILRAYFDINNSPSEEQIQEMAEKSGLSQKVIKHWFRNTNFKERQ [L51N] | -0.12 ± 0.13 |
| RPRTRITDDQLKILRAYFDINNSPSEEQIQEMAEKSGLSQKVIKHWFRNWLFKERQ [T50W] | -0.109 ± 0.093 |
| RPRTRITDDQLKILRAYFDINNSPSEEQIQEMAEKSGLSQKVIKHWFRNFLFKERQ [T50F] | -0.182 ± 0.16 |
| RPRTRITDDQLKILRAYFDINNSPSEEQIQEMAEKSGLSQKVIKHWFRNKLFKERQ [T50K] | -0.016 ± 0.099 |
| RPRTRITDDQLKILRAYFDINNSPSEEQIQEMAEKSGLSQKVIKHWFRNNLFKERQ [T50N] | 0.007 ± 0.14 |
| RPRTRITDDQLKILRAYFDINNSPSEEQIQEMAEKSGLSQKVIKHWFRNELFKERQ [T50E] | 0.051 ± 0.12 |
| RPRTRITDDQLKILRAYFDINNSPSEEQIQEMAEKSGLSQKVIKHWFRNALFKERQ [T50A] | -0.013 ± 0.08 |
| RPRTRITDDQLKILRAYFDINNSPSEEQIQEMAEKSGLSQKVIKHWFRNMLFKERQ [T50M] | 0.065 ± 0.1 |
| RPRTRITDDQLKILRAYFDINNSPSEEQIQEMAEKSGLSQKVIKHWFRNRLFKERQ [T50R] | -0.032 ± 0.065 |
| RPRTRITDDQLKILRAYFDINNSPSEEQIQEMAEKSGLSQKVIKHWFRNILFKERQ [T50I] | -0.119 ± 0.1 |
| RPRTRITDDQLKILRAYFDINNSPSEEQIQEMAEKSGLSQKVIKHWFRNLLFKERQ [T50L] | -0.061 ± 0.081 |
| RPRTRITDDQLKILRAYFDINNSPSEEQIQEMAEKSGLSQKVIKHWFRNYLFKERQ [T50Y] | -0.288 ± 0.13 |
| RPRTRITDDQLKILRAYFDINNSPSEEQIQEMAEKSGLSQKVIKHWFRNDLFKERQ [T50D] | 0.102 ± 0.15 |
| RPRTRITDDQLKILRAYFDINNSPSEEQIQEMAEKSGLSQKVIKHWFRNQLFKERQ [T50Q] | 0.035 ± 0.11 |
| RPRTRITDDQLKILRAYFDINNSPSEEQIQEMAEKSGLSQKVIKHWFRNCLFKERQ [T50C] | -0.213 ± 0.11 |
| RPRTRITDDQLKILRAYFDINNSPSEEQIQEMAEKSGLSQKVIKHWFRNGLFKERQ [T50G] | -0.079 ± 0.074 |
| RPRTRITDDQLKILRAYFDINNSPSEEQIQEMAEKSGLSQKVIKHWFRNSLFKERQ [T50S] | -0.053 ± 0.078 |
| RPRTRITDDQLKILRAYFDINNSPSEEQIQEMAEKSGLSQKVIKHWFRNTLFPERQ [K53P] | -0.285 ± 0.12 |
| RPRTRITDDQLKILRAYFDINNSPSEEQIQEMAEKSGLSQKVIKHWFRNTLFNERQ [K53N] | -0.023 ± 0.15 |
| RPRTRITDDQLKILRAYFDINNSPSEEQIQEMAEKSGLSQKVIKHWFRNTLFFERQ [K53F] | -0.284 ± 0.18 |
| RPRTRITDDQLKILRAYFDINNSPSEEQIQEMAEKSGLSQKVIKHWFRNTLFSERQ [K53S] | 0.016 ± 0.084 |
